# Target: the molecule itself
# Test: ESI-IMS-MS of colpeptin1 in 100 mM ammonium acetate buffer (self-association)
protein,measurement,value
RGLGLALVRRPRGLGLALVRR [Colpeptin1 (P2)],binding result,binds
